Test results published in patent CN105061596A (JIANGSU NOVOMAB BIOPHARMACEUTICAL INC, dated 2015).
Values belong to the binder of their own block, whether it stands above or below them.

How the values were obtained:
[1] = target: T1, Blys (human, UniProt Q9Y275 134-285, limits assumed); assay: SPR, Biacore T200, antibody captured by goat anti-human IgG on a CM5 chip, 300 nM BLYS as analyte
T1 construct: Unlabelled Blys as used as the analyte in Biacore (300 nM) and in the mouse splenocyte proliferation assay (3 ng/ml); also called BAFF; B淋巴细胞刺激因子

[2] = target: T1, Blys; assay: cell-based or functional assay
[3] = target: T2, Blys-His融合蛋白(含6×His标签) (human, UniProt Q9Y275 134-285); assay: ELISA, Blys-His coated, 1:4 serial dilutions of antibody, mouse anti-human IgG-HRP
T2 construct: Expressed in CHO-K1 cells and purified on a Ni column; The background says that Blys acts as a homotrimer and that residues 133-285 are the main functional region; also called 重组人BLYS; not shown: 6×His tag

Kd [1]: 1.37 nM
抑制Blys刺激的鼠脾细胞增殖 IC50 [2]: 8.25 ng/mL
B1: Belimumab (antibody, V domains shown)
VH: QVQLQQSGAEVKKPGSSVRVSCKASGGTFNNNAINWVRQAPGQGLEWMGGIIPMFGTAKYSQNFQGRVAITADESTGTASMELSSLRSEDTAVYYCARSRDLLLFPHHALSPWGRGTMVTVSS
VL: SSELTQDPAVSVALGQTVRVTCQGDSLRSYYASWYQQKPGQAPVLVIYGKNNRPSGIPDRFSGSSSGNTASLTITGAQAEDEADYYCSSRDSSGNHWVFGGGTELTVLG

EC50 [3]: 0.0292 nM
B2: NMB01 (antibody, V domains shown)
VH: EVQLVESGGGLVQPGGSLRLSCAASGFTFSTFGMNWVRQAPGKGLEWVSYISSGSSTIYYADTVKGRFTISRDNAKNSLYLQMNSLRAEDTAVYYCARLGDPLLRPKGNAMDYWGQGTLVTVSS
VL: DIQMTQSPSSLSASVGDRVTITCLASQTIGTWLAWYQQKPGKAPKLLIYAATRKADGVPSRFSGSGSGTDFTLTISSLQPEDFATYYCQQLYSSPWTFGGGTKVEIK
